The data set addresses Nucleolin 284-710 (UniProt P19338 284-710). As to the kind of experiment: EMSA; 100 mM KCl; EMSA: oligo folded in binding buffer (composition not given) + 100 mM KCl, 37 C 1 h; nucleolin 100 ng, 4 C 2 h, 8% native gel + 100 mM KCl at 4 C; BG4 37 C 30 min, 6% native gel + 100 mM KCl at RT; CD: 1x PBS + 100 mM KCl. To be noted: protein: recombinant, tags: His, label: 5'-32P (EMSA). Background: Mobility shift assays separate free from complexed probe on a gel.

Nucleolin 284-710, sequence (P19338 284-710): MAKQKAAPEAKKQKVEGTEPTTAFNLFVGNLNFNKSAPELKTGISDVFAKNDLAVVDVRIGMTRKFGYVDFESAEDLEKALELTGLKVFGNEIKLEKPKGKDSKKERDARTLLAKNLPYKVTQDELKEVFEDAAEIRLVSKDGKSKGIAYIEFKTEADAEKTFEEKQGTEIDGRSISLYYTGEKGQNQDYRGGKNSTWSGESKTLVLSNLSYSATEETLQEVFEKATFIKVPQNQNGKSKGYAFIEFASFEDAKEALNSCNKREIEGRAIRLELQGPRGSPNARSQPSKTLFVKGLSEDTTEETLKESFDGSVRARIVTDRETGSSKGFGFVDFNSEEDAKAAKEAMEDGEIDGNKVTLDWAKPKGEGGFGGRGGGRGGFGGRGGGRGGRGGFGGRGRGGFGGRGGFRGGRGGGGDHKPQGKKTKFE

Consider GGAGGTTTCCGGGGGCGCGGGGCGGAGC (structured_DNA) [KD52 (SHOX G-rich strand)], for which, where the note is “intramolecular parallel G4, two G stretches plus GNG motifs”, the binding result is on record as “binds”.

GCTCCGCCCCGCGCCCCCGGAAACCTCC (ssDNA) [KD53 (C-rich reverse complement of KD52)]: the binding result (single strand) is recorded as “no binding”.

The values are drawn from article PMC4945072, “GNG Motifs Can Replace a GGG Stretch during G-Quadruplex Formation in a Context Dependent Manner”.
